Data taken from the Immune Epitope Database (IEDB).

Legend:
[1] = molecular target: HLA-A*01:01; experiment: IEDB peptide-MHC binding, purified MHC/direct/fluorescence; filed as Kd, often an IC50 or EC50 that approximates it; ≥ and ≤ were set here for values at or beyond the usual limits of such assays
[2] = molecular target: HLA-A*02:03; experiment: as above
[3] = molecular target: HLA-A*02:11; experiment: as above
[4] = molecular target: HLA-A*02:12; experiment: as above
[5] = molecular target: HLA-A*02:16; experiment: as above
[6] = molecular target: HLA-A*02:19; experiment: as above
[7] = molecular target: HLA-A*03:01; experiment: as above
[8] = molecular target: HLA-A*23:01; experiment: as above
[9] = molecular target: HLA-A*24:03; experiment: as above
[10] = molecular target: HLA-A*68:02; experiment: as above
[11] = molecular target: HLA-A*02:01; experiment: IEDB peptide-MHC binding, purified MHC/competitive/fluorescence; filed as Kd, often an IC50 or EC50 that approximates it; ≥ and ≤ were set here for values at or beyond the usual limits of such assays
[12] = molecular target: HLA-A*26:01; experiment: as above
[13] = molecular target: HLA-A*69:01; experiment: as above
[14] = molecular target: HLA-B*15:01; experiment: as above
[15] = molecular target: HLA-B*15:17; experiment: as above
[16] = molecular target: HLA-B*18:01; experiment: as above
[17] = molecular target: HLA-B*27:03; experiment: as above
[18] = molecular target: HLA-B*39:01; experiment: as above
[19] = molecular target: HLA-B*46:01; experiment: as above
[20] = molecular target: HLA-B*51:01; experiment: as above
[21] = molecular target: HLA-B*57:01; experiment: as above
[22] = molecular target: HLA-A*29:02; experiment: IEDB peptide-MHC binding, purified MHC/direct/fluorescence; filed as Kd, often an IC50 or EC50 that approximates it; ≥ and ≤ were set here for values at or beyond the usual limits of such assays
[23] = molecular target: HLA-A*03:01; experiment: IEDB peptide-MHC binding, purified MHC/competitive/fluorescence; filed as Kd, often an IC50 or EC50 that approximates it; ≥ and ≤ were set here for values at or beyond the usual limits of such assays; settings: source organism: Orthohantavirus sinnombreense
[24] = molecular target: HLA-A*31:01; experiment: as above; settings: source organism: Orthohantavirus sinnombreense
[25] = molecular target: HLA-A*02:01; experiment: IEDB peptide-MHC binding, purified MHC/direct/fluorescence; filed as Kd, often an IC50 or EC50 that approximates it; ≥ and ≤ were set here for values at or beyond the usual limits of such assays; settings: source organism: Sudan ebolavirus - Maleo (1979)
[26] = molecular target: HLA-A*02:01; experiment: IEDB peptide-MHC binding, purified MHC/competitive/fluorescence; ≥ and ≤ were set here for values at or beyond the usual limits of such assays
[27] = molecular target: HLA-A*24:02; experiment: as above
[28] = molecular target: HLA-B*07:02; experiment: as above
[29] = molecular target: HLA-B*15:01; experiment: as above
[30] = molecular target: HLA-B*40:01; experiment: IEDB peptide-MHC binding, purified MHC/direct/fluorescence; filed as Kd, often an IC50 or EC50 that approximates it; ≥ and ≤ were set here for values at or beyond the usual limits of such assays; settings: source organism: Sudan ebolavirus - Uganda (2000)
[31] = molecular target: HLA-A*03:01; experiment: IEDB peptide-MHC binding, purified MHC/competitive/fluorescence; ≥ and ≤ were set here for values at or beyond the usual limits of such assays
[32] = molecular target: HLA-A*11:01; experiment: as above
[33] = molecular target: HLA-A*02:03; experiment: IEDB peptide-MHC binding, purified MHC/competitive/fluorescence; filed as Kd, often an IC50 or EC50 that approximates it; ≥ and ≤ were set here for values at or beyond the usual limits of such assays; settings: source organism: Human immunodeficiency virus 1
[34] = molecular target: HLA-A*68:02; experiment: as above; settings: source organism: Human immunodeficiency virus 1
[35] = molecular target: HLA-B*08:01; experiment: IEDB peptide-MHC binding, purified MHC/direct/fluorescence; filed as Kd, often an IC50 or EC50 that approximates it; ≥ and ≤ were set here for values at or beyond the usual limits of such assays; settings: source organism: Rio Mamore hantavirus
[36] = molecular target: HLA-A*26:02; experiment: IEDB peptide-MHC binding, purified MHC/competitive/fluorescence; filed as Kd, often an IC50 or EC50 that approximates it; ≥ and ≤ were set here for values at or beyond the usual limits of such assays; settings: source organism: Human immunodeficiency virus 1
[37] = source organism: Reston ebolavirus
[38] = source organism: Limestone Canyon virus
[39] = source organism: Orthohantavirus sinnombreense
[40] = source organism: Zaire ebolavirus
[41] = source organism: Ravn virus - Ravn, Kenya, 1987
[42] = source organism: Vaccinia virus
[43] = source organism: Sudan ebolavirus
[44] = source organism: Lechiguanas virus
[45] = source organism: Human immunodeficiency virus 1

Sequence TTDDSTSYY has a Kd ([1]; source organism: Reston ebolavirus - Reston) of 12.2 nM, a Kd [2, 37] of no less than 20 µM and a Kd [3, 37] of no less than 20 µM. For the same sequence, the Kd [4, 37] was no less than 20 µM, the Kd [5, 37] was no less than 20 µM and the Kd [6, 37] was no less than 20 µM. The Kd [7, 37] was no less than 20 µM, the Kd [8, 37] was no less than 20 µM and the Kd [9, 37] was no less than 20 µM. It also gave a Kd [10, 37] of no less than 20 µM, a Kd [11, 37] of no less than 20 µM and a Kd [12, 37] of no less than 20 µM. It also gave a Kd [13, 37] of no less than 20 µM, a Kd [14, 37] of no less than 20 µM and a Kd [15, 37] of no less than 20 µM. It also gave a Kd [16, 37] of no less than 20 µM, a Kd [17, 37] of no less than 20 µM and a Kd [18, 37] of no less than 20 µM. It also gave a Kd [19, 37] of no less than 20 µM, a Kd [20, 37] of no less than 20 µM and a Kd [21, 37] of no less than 20 µM.
Work on RTLGVFRYK yielded a Kd [2, 38] of no less than 20 µM, a Kd [4, 38] of no less than 20 µM and a Kd [5, 38] of no less than 20 µM. For the same sequence, the Kd [6, 38] was no less than 20 µM, the Kd [22, 38] was no less than 20 µM and the Kd [10, 38] was no less than 20 µM. For the same sequence, the Kd [23] was 109 nM, the Kd [12, 39] was no less than 20 µM and the Kd [24] was 6.2 nM. It also gave a Kd [13, 39] of no less than 20 µM, a Kd [14, 39] of no less than 20 µM and a Kd [16, 39] of no less than 20 µM. It also gave a Kd [18, 39] of no less than 20 µM, a Kd [19, 39] of no less than 20 µM and a Kd [20, 39] of no less than 20 µM.
SMHYKLDEV was tested, and the Kd [25] was 15.1 nM, the Kd [7, 40] was no less than 20 µM and the Kd [8, 40] was no less than 20 µM. For the same sequence, the Kd [9, 40] was no less than 20 µM, the Kd [22, 40] was no less than 20 µM and the Kd [12, 40] was no less than 20 µM. For the same sequence, the Kd [13, 40] was no less than 20 µM, the Kd [14, 40] was no less than 20 µM and the Kd [15, 40] was no less than 20 µM. The Kd [16, 40] was no less than 20 µM, the Kd [17, 40] was no less than 20 µM and the Kd [18, 40] was no less than 20 µM. It also gave a Kd [19, 40] of no less than 20 µM, a Kd [20, 40] of no less than 20 µM and a Kd [21, 40] of no less than 20 µM.
In the case of TSPRMLTPI, the IC50 [26, 40] is reported as no less than 684000 nM, the IC50 [27, 40] is reported as 3050 nM and the IC50 [28, 40] is reported as no less than 260 µM.
FIHIPGDTL gave an IC50 ([26]; source organism: Variola virus) of 2550 nM, an IC50 ([28]; source organism: Variola virus) of 47 µM and an IC50 ([29]; source organism: Variola virus) of no less than 80.7 µM.
In the case of LESLTDREL, the Kd [2, 40] is reported as no less than 20 µM, the Kd [3, 40] is reported as no less than 20 µM and the Kd [4, 40] is reported as no less than 20 µM. For the same sequence, the Kd [5, 40] was no less than 20 µM, the Kd [6, 40] was no less than 20 µM and the Kd [7, 40] was no less than 20 µM. The Kd [9, 40] was no less than 20 µM, the Kd [10, 40] was no less than 20 µM and the Kd [30] was 118 nM. The Kd [11, 40] was no less than 20 µM, the Kd [12, 40] was no less than 20 µM and the Kd [13, 40] was no less than 20 µM. The Kd [14, 40] was no less than 20 µM, the Kd [15, 40] was no less than 20 µM and the Kd [16, 40] was no less than 20 µM. It also gave a Kd [17, 40] of no less than 20 µM, a Kd [18, 40] of no less than 20 µM and a Kd [19, 40] of no less than 20 µM. It also gave a Kd [20, 40] of no less than 20 µM and a Kd [21, 40] of no less than 20 µM.
In the case of TPSATTAAG, the IC50 [28, 40] is reported as no less than 144 µM.
For TLRKERLAK, the IC50 [31, 40] was 0.509 µM, the IC50 [32, 40] was 4.25 µM and the IC50 [28, 40] was no less than 119 µM. For the same sequence, the IC50 [29, 40] was no less than 171 µM.
DLEKYNLAF was tested, and the Kd [1, 40] was no less than 20000 nM, the Kd [2, 41] was no less than 20 µM and the Kd [3, 41] was no less than 20 µM. For the same sequence, the Kd [4, 41] was no less than 20 µM, the Kd [5, 41] was no less than 20 µM and the Kd [6, 41] was no less than 20 µM. For the same sequence, the Kd [7, 41] was no less than 20 µM, the Kd [8, 41] was no less than 20 µM and the Kd [9, 41] was no less than 20 µM. The Kd [22, 41] was no less than 20 µM, the Kd [10, 41] was no less than 20 µM and the Kd [11, 40] was no less than 20 µM. For the same sequence, the Kd [12, 40] was no less than 20 µM, the Kd [13, 40] was no less than 20 µM and the Kd [14, 40] was no less than 20 µM. It also gave a Kd [15, 40] of no less than 20 µM, a Kd [16, 40] of no less than 20 µM and a Kd [17, 40] of no less than 20 µM. The Kd [18, 40] was no less than 20 µM, the Kd [19, 40] was no less than 20 µM and the Kd [20, 40] was no less than 20 µM. The Kd [21, 40] was no less than 20 µM.
Sequence TGFGTNETE has an IC50 [28, 40] of no less than 221 µM.
For YIKNIGNTK, the IC50 [31, 42] was 6.51 µM, the IC50 [32, 42] was 30.5 µM and the IC50 [28, 42] was no less than 745 µM.
RPHTPQFLF gave an IC50 [27, 43] of 1030 nM and an IC50 [28, 43] of 1.46 µM.
Work on EELKSLFNTI yielded a Kd [33] of 1540 nM and a Kd [34] of 1180 nM.
Sequence KLKSVGKAY has a Kd [2, 38] of no less than 20 µM, a Kd [3, 38] of no less than 20 µM and a Kd [4, 38] of no less than 20 µM. It also gave a Kd [5, 38] of no less than 20 µM, a Kd [6, 38] of no less than 20 µM and a Kd ([7]; source organism: Rio Mamore hantavirus) of 0.536 µM. For the same sequence, the Kd [9, 38] was no less than 20 µM, the Kd [22, 38] was no less than 20 µM and the Kd [10, 38] was no less than 20 µM. It also gave a Kd [35] of no less than 20 µM, a Kd [11, 44] of no less than 20 µM and a Kd [12, 44] of no less than 20 µM. The Kd [13, 44] was no less than 20 µM, the Kd [16, 44] was no less than 20 µM and the Kd [17, 44] was no less than 20 µM. For the same sequence, the Kd [18, 44] was no less than 20 µM, the Kd [20, 44] was no less than 20 µM and the Kd [21, 44] was no less than 20 µM.
Sequence DIKDTKEAL has a Kd [11, 45] of no less than 20 µM, a Kd [36] of no less than 20 µM and a Kd [34] of 1700 nM. The Kd [18, 45] was no less than 20 µM.
